Measured values from the supplement of paper PMC9112550, “Optimization of the antimicrobial peptide Bac7 by deep mutational scanning” (BMC Biology, 2022).

test system: Escherichia coli TOP10; experiment: shrunken log2 fold change of peptide-encoding DNA abundance (4.5 h post-induction vs induction); higher = less antimicrobial activity (less host growth inhibition); conditions: time post-induction: 4.5 h; library: site-saturation at positions 5, 18, 19, 20
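Also: peptides expressed intracellularly from a pBAD plasmid library in pooled LB shake-flask culture, induced with 0.3% L-arabinose, DNA abundance read by NGS, three biological replicates, DESeq2 with apeglm shrinkage.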

| Sequence | shrunken log2 fold change |
| --- | --- |
| RRIRARPPRLPRPRPRPIEPPRP | 0.0525 |
| RRIRFRPPRLPRPRPRPTFPPRP | -0.0193 |
| RRIRNRPPRLPRPRPRPEAWPRP | -0.0397 |
| RRIRRRPPRLPRPRPRPEAYPRP | 0.15 |
| RRIRARPPRLPRPRPRPSGYPRP | 0.094 |
| RRIRVRPPRLPRPRPRPQHGPRP | 0.14 |
| RRIRRRPPRLPRPRPRPYHLPRP | -0.307 |
| RRIRQRPPRLPRPRPRPPYKPRP | -0.166 |
| RRIRRRPPRLPRPRPRPMCQPRP | 0.254 |
| RRIRNRPPRLPRPRPRPSNFPRP | -0.31 |
| RRIRVRPPRLPRPRPRPRWGPRP | 0.157 |
| RRIRNRPPRLPRPRPRPVICPRP | -0.102 |
| RRIRIRPPRLPRPRPRPMIMPRP | -0.615 |
| RRIRPRPPRLPRPRPRPVWCPRP | 0.0172 |
| RRIRYRPPRLPRPRPRPWVRPRP | -0.108 |
| RRIRYRPPRLPRPRPRPASIPRP | -0.229 |
| RRIRWRPPRLPRPRPRPLFVPRP | -0.076 |
| RRIRIRPPRLPRPRPRPQILPRP | 0.0356 |
| RRIRMRPPRLPRPRPRPACCPRP | 0.646 |
| RRIRPRPPRLPRPRPRPKWDPRP | 0.319 |
| RRIRRRPPRLPRPRPRPHMVPRP | -0.355 |
| RRIRERPPRLPRPRPRPFYLPRP | -0.648 |
| RRIRWRPPRLPRPRPRPKHVPRP | 0.254 |
| RRIRYRPPRLPRPRPRPTLYPRP | -0.828 |
| RRIRVRPPRLPRPRPRPIKQPRP | 0.0119 |

| Sequence | shrunken log2 fold change |
| --- | --- |
| RRIRIRPPRLPRPRPRPKQIPRP | -0.205 |
| RRIRIRPPRLPRPRPRPGFVPRP | 0.108 |
| RRIRWRPPRLPRPRPRPTYRPRP | 0.146 |
| RRIRDRPPRLPRPRPRPKIMPRP | 0.199 |
| RRIRKRPPRLPRPRPRPKFYPRP | -0.0589 |
| RRIRERPPRLPRPRPRPMMCPRP | -0.0137 |
| RRIRQRPPRLPRPRPRPCIRPRP | -0.0303 |
| RRIRERPPRLPRPRPRPDPCPRP | -0.119 |
| RRIRTRPPRLPRPRPRPYYQPRP | -0.122 |
| RRIRERPPRLPRPRPRPPLDPRP | 0.0357 |
| RRIRKRPPRLPRPRPRPQHVPRP | -0.124 |
| RRIRRRPPRLPRPRPRPSLRPRP | -0.0199 |
| RRIRWRPPRLPRPRPRPKTQPRP | 0.0326 |
| RRIRQRPPRLPRPRPRPVMEPRP | -0.028 |
| RRIRPRPPRLPRPRPRPEAAPRP | 1.13 |
| RRIRHRPPRLPRPRPRPNYMPRP | -0.0657 |
| RRIRNRPPRLPRPRPRPEKCPRP | -0.0684 |
| RRIRQRPPRLPRPRPRPATWPRP | 0.343 |
| RRIRARPPRLPRPRPRPVDNPRP | 0.0773 |
| RRIRDRPPRLPRPRPRPISRPRP | -0.032 |
| RRIRQRPPRLPRPRPRPPPCPRP | 0.393 |
| RRIRQRPPRLPRPRPRPEDGPRP | 0.154 |
| RRIRARPPRLPRPRPRPIYEPRP | -0.352 |
| RRIRARPPRLPRPRPRPQGIPRP | 0.0477 |
| RRIRARPPRLPRPRPRPRHAPRP | 0.612 |

| Sequence | shrunken log2 fold change |
| --- | --- |
| RRIRLRPPRLPRPRPRPYYEPRP | -0.493 |
| RRIRCRPPRLPRPRPRPITCPRP | -0.159 |
| RRIRQRPPRLPRPRPRPAGCPRP | 0.409 |
| RRIRTRPPRLPRPRPRPDSNPRP | 0.0255 |
| RRIRQRPPRLPRPRPRPVPRPRP | 0.829 |
| RRIRFRPPRLPRPRPRPCKLPRP | -1.48 |
| RRIRNRPPRLPRPRPRPDTIPRP | -0.145 |
| RRIRDRPPRLPRPRPRPGQDPRP | 0.945 |
| RRIRMRPPRLPRPRPRPRISPRP | 0.395 |
| RRIRHRPPRLPRPRPRPTLEPRP | 0.319 |
| RRIRGRPPRLPRPRPRPKIAPRP | 0.386 |
| RRIRYRPPRLPRPRPRPKYGPRP | -0.176 |
| RRIRTRPPRLPRPRPRPNWRPRP | 0.176 |
| RRIRVRPPRLPRPRPRPQCQPRP | 0.148 |
| RRIRMRPPRLPRPRPRPAGGPRP | 0.831 |
| RRIRKRPPRLPRPRPRPRDAPRP | 0.558 |
| RRIRKRPPRLPRPRPRPLIPPRP | -0.000217 |
| RRIRKRPPRLPRPRPRPNHVPRP | 0.0656 |
| RRIRSRPPRLPRPRPRPMPNPRP | -0.0112 |
| RRIRKRPPRLPRPRPRPEKNPRP | 0.987 |
| RRIRERPPRLPRPRPRPTIKPRP | -0.178 |
| RRIRVRPPRLPRPRPRPEVQPRP | 0.148 |
| RRIRNRPPRLPRPRPRPKGCPRP | -0.0382 |
| RRIRIRPPRLPRPRPRPHEVPRP | -0.0624 |
| RRIRDRPPRLPRPRPRPEEPPRP | 2.06 |

| Sequence | shrunken log2 fold change |
| --- | --- |
| RRIRTRPPRLPRPRPRPSMRPRP | -0.107 |
| RRIRYRPPRLPRPRPRPYYIPRP | -1.83 |
| RRIRFRPPRLPRPRPRPKGNPRP | -0.047 |
| RRIRTRPPRLPRPRPRPQECPRP | -0.0262 |
| RRIRVRPPRLPRPRPRPPAEPRP | 0.253 |
| RRIRCRPPRLPRPRPRPVFVPRP | -0.136 |
| RRIRFRPPRLPRPRPRPVAIPRP | -0.0527 |
| RRIRRRPPRLPRPRPRPWLEPRP | 0.0128 |
| RRIRERPPRLPRPRPRPMFEPRP | 0.000206 |
| RRIRRRPPRLPRPRPRPKCKPRP | -0.0255 |
| RRIRRRPPRLPRPRPRPYVGPRP | -0.00208 |
| RRIRLRPPRLPRPRPRPHWDPRP | 0.176 |
| RRIRIRPPRLPRPRPRPPQAPRP | 0.639 |
| RRIRWRPPRLPRPRPRPIFWPRP | -0.00424 |
| RRIRSRPPRLPRPRPRPTMSPRP | -0.0133 |
| RRIRERPPRLPRPRPRPANTPRP | 1.45 |
| RRIRWRPPRLPRPRPRPSRSPRP | 0.0592 |
| RRIRDRPPRLPRPRPRPQVPPRP | -0.0122 |
| RRIRVRPPRLPRPRPRPGPCPRP | -0.128 |
| RRIRVRPPRLPRPRPRPHFFPRP | -0.0497 |
| RRIRWRPPRLPRPRPRPGMRPRP | 0.976 |
| RRIRDRPPRLPRPRPRPNYLPRP | -0.126 |
| RRIRWRPPRLPRPRPRPFVSPRP | -0.135 |
| RRIRNRPPRLPRPRPRPWLYPRP | -0.00103 |
| RRIRDRPPRLPRPRPRPLQYPRP | -0.373 |

| Sequence | shrunken log2 fold change |
| --- | --- |
| RRIRRRPPRLPRPRPRPEREPRP | 0.297 |
| RRIRHRPPRLPRPRPRPAMRPRP | 1.1 |
| RRIRHRPPRLPRPRPRPAMLPRP | -0.168 |
| RRIRLRPPRLPRPRPRPDWHPRP | -0.264 |
| RRIRARPPRLPRPRPRPQYKPRP | -0.303 |
| RRIRPRPPRLPRPRPRPGDCPRP | 0.482 |
| RRIRIRPPRLPRPRPRPRQTPRP | -0.0527 |
| RRIRPRPPRLPRPRPRPRPLPRP | 0.627 |
| RRIRMRPPRLPRPRPRPHNWPRP | 0.249 |
| RRIRYRPPRLPRPRPRPQTMPRP | -0.23 |
| RRIRARPPRLPRPRPRPAHRPRP | 0.326 |
| RRIRPRPPRLPRPRPRPPQIPRP | 0.138 |
| RRIRRRPPRLPRPRPRPWQYPRP | 0.0419 |
| RRIRKRPPRLPRPRPRPPIFPRP | 0.269 |
| RRIRVRPPRLPRPRPRPAQGPRP | 0.00544 |
| RRIRIRPPRLPRPRPRPHAKPRP | -0.348 |
| RRIRGRPPRLPRPRPRPTFAPRP | 0.997 |
| RRIRYRPPRLPRPRPRPAHDPRP | -1.14 |
| RRIRRRPPRLPRPRPRPKKQPRP | -0.0969 |
| RRIRNRPPRLPRPRPRPEAEPRP | 0.497 |
| RRIRRRPPRLPRPRPRPIPCPRP | 0.0472 |
| RRIRCRPPRLPRPRPRPGMLPRP | -0.135 |
| RRIRTRPPRLPRPRPRPECPPRP | 0.151 |
| RRIRDRPPRLPRPRPRPLLCPRP | 0.503 |
| RRIRPRPPRLPRPRPRPVTLPRP | 0.527 |

| Sequence | shrunken log2 fold change |
| --- | --- |
| RRIRERPPRLPRPRPRPLSMPRP | -0.242 |
| RRIRQRPPRLPRPRPRPFICPRP | -0.0129 |
| RRIRKRPPRLPRPRPRPWNLPRP | -0.109 |
| RRIRWRPPRLPRPRPRPYVHPRP | -1.18 |
| RRIRTRPPRLPRPRPRPCILPRP | -0.831 |
| RRIRGRPPRLPRPRPRPKKKPRP | 0.354 |
| RRIRPRPPRLPRPRPRPKQKPRP | 0.123 |
| RRIRHRPPRLPRPRPRPWAMPRP | -0.00884 |
| RRIRYRPPRLPRPRPRPFYYPRP | -1.18 |
| RRIRYRPPRLPRPRPRPADMPRP | -0.382 |
| RRIRIRPPRLPRPRPRPNGYPRP | -0.0764 |
| RRIRSRPPRLPRPRPRPPQYPRP | -0.0375 |
| RRIRMRPPRLPRPRPRPIQYPRP | 0.0408 |
| RRIRERPPRLPRPRPRPYSEPRP | -0.157 |
| RRIRNRPPRLPRPRPRPARSPRP | 0.679 |
| RRIRMRPPRLPRPRPRPHNMPRP | -0.243 |
| RRIRRRPPRLPRPRPRPNSVPRP | -0.0617 |
| RRIRTRPPRLPRPRPRPETQPRP | 0.205 |
| RRIRQRPPRLPRPRPRPDMEPRP | 0.104 |
| RRIRQRPPRLPRPRPRPYMLPRP | -0.168 |
| RRIRARPPRLPRPRPRPHAIPRP | 0.0503 |
| RRIRSRPPRLPRPRPRPILSPRP | -0.329 |
| RRIRIRPPRLPRPRPRPFFSPRP | -0.799 |
| RRIRTRPPRLPRPRPRPSYPPRP | -1.08 |
| RRIRSRPPRLPRPRPRPVTYPRP | -0.273 |
